Results reported in paper PMC9482650, “Quantitative fragmentomics allow affinity mapping of interactomes” (Nature Communications, 2022).

Columns and labels:
Assay in all cases: holdup assay
Design in all cases: key: below the threshold = too weak to quantify, mostly under pKd 3.1 to 4
ARHGAP21, Q5T5U3 = target: T1, ARHGAP21, Q5T5U3
T1 sequence (Q5T5U3 45-169, limits assumed, looked up): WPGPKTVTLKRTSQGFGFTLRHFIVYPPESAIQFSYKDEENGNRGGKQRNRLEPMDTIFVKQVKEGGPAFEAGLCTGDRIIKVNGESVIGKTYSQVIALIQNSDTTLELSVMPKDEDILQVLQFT

DLG1_2, Q12959 = target: DLG1_2, Q12959
DLG1_3, Q12959 = target: DLG1_3, Q12959
DLG2_2, Q15700 = target: DLG2_2, Q15700
DLG2_3, Q15700 = target: DLG2_3, Q15700
DLG4_3, P78352 = target: DLG4_3, P78352
FRMPD2_2, Q68DX3 = target: FRMPD2_2, Q68DX3
GIPC2, Q8TF65 = target: GIPC2, Q8TF65
GOPC, Q9HD26 = target: GOPC, Q9HD26
GRID2IP_1, A4D2P6 = target: GRID2IP_1, A4D2P6
GRIP2_3, Q9C0E4 = target: GRIP2_3, Q9C0E4
GRIP2_7, Q9C0E4 = target: GRIP2_7, Q9C0E4
HTRA1, Q92743 = target: HTRA1, Q92743
Inadl_10, Q8NI35 = target: Inadl_10, Q8NI35
LIN7A, O14910 = target: T2, LIN7A, O14910
T2 sequence (O14910 103-200, limits assumed, looked up): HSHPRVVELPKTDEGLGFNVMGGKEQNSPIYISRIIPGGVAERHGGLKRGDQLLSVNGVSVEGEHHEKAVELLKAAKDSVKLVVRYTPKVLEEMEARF

LRRC7, Q96NW7 = target: T3, LRRC7, Q96NW7
T3 sequence (Q96NW7 1440-1537, limits assumed, looked up): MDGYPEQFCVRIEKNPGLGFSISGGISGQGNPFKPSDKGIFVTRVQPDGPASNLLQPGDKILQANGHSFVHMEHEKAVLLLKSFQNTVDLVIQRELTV

MPDZ_5, O75970 = target: T4, MPDZ_5, O75970
T4 sequence (O75970 695-796, limits assumed, looked up): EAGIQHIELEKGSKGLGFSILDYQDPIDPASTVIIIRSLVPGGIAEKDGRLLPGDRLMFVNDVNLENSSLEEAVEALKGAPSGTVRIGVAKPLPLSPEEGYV

PARD3B_1, Q8TEW8 = target: T5, PARD3B_1, Q8TEW8
T5 sequence (Q8TEW8 196-299, limits assumed, looked up): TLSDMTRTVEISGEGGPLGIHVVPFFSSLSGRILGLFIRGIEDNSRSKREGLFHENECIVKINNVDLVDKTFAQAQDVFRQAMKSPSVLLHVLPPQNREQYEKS

PCLO, Q9Y6V0 = target: T6, PCLO, Q9Y6V0
T6 sequence (Q9Y6V0 4491-4600, limits assumed, looked up): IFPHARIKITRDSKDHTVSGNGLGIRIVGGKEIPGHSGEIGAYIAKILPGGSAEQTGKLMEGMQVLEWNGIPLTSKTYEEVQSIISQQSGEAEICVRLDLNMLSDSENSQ

PDZD7_3, Q9H5P4 = target: T7, PDZD7_3, Q9H5P4
T7 sequence (Q9H5P4 857-944, limits assumed, looked up): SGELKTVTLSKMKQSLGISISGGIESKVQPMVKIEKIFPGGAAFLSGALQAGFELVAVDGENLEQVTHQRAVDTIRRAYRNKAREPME

PTPN13_1, Q12923 = target: T8, PTPN13_1, Q12923
T8 sequence (Q12923 1088-1188, limits assumed, looked up): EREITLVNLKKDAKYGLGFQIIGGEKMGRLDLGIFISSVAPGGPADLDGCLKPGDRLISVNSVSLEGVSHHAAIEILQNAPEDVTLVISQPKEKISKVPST

RAPGEF6, Q8TEU7 = target: T9, RAPGEF6, Q8TEU7
T9 sequence (Q8TEU7 525-625, limits assumed, looked up): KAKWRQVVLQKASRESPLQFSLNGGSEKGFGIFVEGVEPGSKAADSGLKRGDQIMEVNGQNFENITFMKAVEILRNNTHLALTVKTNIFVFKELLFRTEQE

SIPA1L2, Q9P2F8 = target: T10, SIPA1L2, Q9P2F8
T10 sequence (Q9P2F8 945-1036, limits assumed, looked up): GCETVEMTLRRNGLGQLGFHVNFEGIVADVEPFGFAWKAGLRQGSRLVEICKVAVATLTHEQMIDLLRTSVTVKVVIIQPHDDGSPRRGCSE

SNTB1, Q13884 = target: T11, SNTB1, Q13884
T11 sequence (Q13884 107-205, limits assumed, looked up): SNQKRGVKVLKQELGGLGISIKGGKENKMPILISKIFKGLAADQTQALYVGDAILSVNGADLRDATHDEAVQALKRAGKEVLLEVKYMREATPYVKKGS

SYNJ2BP, P57105 = target: T12, SYNJ2BP, P57105
T12 sequence (P57105 8-110, limits assumed, looked up): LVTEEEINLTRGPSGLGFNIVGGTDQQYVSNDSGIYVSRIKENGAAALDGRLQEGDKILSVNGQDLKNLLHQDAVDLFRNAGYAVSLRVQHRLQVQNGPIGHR

[1] = plain residues with an end cap or a label only (N-terminal biotin on a linker: ttds)
[2] = plain residues with an end cap or a label only (N-terminal biotin on a linker: ahx)
[3] = plain residues with an end cap or a label only (N-terminal biotin on a linker: ado-ado)

GRIP2_7, Q9C0E4, sequence (Q9C0E4 934-1023): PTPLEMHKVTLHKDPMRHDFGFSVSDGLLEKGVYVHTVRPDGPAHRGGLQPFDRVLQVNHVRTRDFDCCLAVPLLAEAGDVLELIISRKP
DLG1_2, Q12959, sequence (Q12959 314-412): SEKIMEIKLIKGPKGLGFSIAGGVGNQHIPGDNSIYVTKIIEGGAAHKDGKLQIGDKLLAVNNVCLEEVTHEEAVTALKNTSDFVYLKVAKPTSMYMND
GRIP2_3, Q9C0E4, sequence (Q9C0E4 238-339): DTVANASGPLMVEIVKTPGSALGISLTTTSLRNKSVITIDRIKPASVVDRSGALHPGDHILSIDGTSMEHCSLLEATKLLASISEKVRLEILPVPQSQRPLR
DLG4_3, P78352, sequence (P78352 306-403): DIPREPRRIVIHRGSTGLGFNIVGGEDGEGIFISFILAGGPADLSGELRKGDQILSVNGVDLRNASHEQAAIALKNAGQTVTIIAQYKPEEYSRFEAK
FRMPD2_2, Q68DX3, sequence (Q68DX3 944-1038): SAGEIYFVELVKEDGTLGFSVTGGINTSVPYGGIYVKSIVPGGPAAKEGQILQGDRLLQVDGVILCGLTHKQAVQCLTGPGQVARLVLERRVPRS
HTRA1, Q92743, sequence (Q92743 360-477): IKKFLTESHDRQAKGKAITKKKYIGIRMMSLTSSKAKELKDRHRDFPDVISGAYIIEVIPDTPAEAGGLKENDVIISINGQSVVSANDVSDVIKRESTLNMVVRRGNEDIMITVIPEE
GRID2IP_1, A4D2P6, sequence (A4D2P6 1-87): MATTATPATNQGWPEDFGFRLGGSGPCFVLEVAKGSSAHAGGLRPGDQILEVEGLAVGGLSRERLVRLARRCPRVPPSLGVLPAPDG
Inadl_10, Q8NI35, sequence (Q8NI35 1673-1763): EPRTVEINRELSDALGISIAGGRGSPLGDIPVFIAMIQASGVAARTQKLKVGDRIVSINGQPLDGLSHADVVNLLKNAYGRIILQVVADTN
GIPC2, Q8TF65, sequence (Q8TF65 112-203): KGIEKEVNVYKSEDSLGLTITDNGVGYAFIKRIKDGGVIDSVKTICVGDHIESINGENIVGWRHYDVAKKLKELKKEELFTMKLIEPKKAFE
DLG1_3, Q12959, sequence (Q12959 457-571): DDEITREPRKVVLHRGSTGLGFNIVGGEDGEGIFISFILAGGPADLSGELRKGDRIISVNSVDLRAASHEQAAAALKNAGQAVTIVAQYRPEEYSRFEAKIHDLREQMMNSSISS

B1: DGKK, Q5KSL6 (peptide)
chain: DPLTPSRSQL
pKd (ARHGAP21, Q5T5U3; [1]): below the threshold | pKd (DLG1_2, Q12959; [1]): below the threshold | pKd (DLG1_3, Q12959; [1]): below the threshold | pKd (DLG2_2, Q15700; [1]): 3.59 | pKd (DLG2_3, Q15700; [1]): 3.73 | pKd (DLG4_3, P78352; [1]): below the threshold | pKd (FRMPD2_2, Q68DX3; [1]): below the threshold | pKd (GIPC2, Q8TF65; [1]): below the threshold | pKd (GOPC, Q9HD26; [1]): below the threshold | pKd (GRID2IP_1, A4D2P6; [1]): below the threshold | pKd (GRIP2_3, Q9C0E4; [1]): below the threshold | pKd (GRIP2_7, Q9C0E4; [1]): 3.64 | pKd (HTRA1, Q92743; [1]): below the threshold | pKd (Inadl_10, Q8NI35; [1]): below the threshold | pKd (LIN7A, O14910; [1]): below the threshold | pKd (LRRC7, Q96NW7; [1]): below the threshold | pKd (MPDZ_5, O75970; [1]): below the threshold | pKd (PARD3B_1, Q8TEW8; [1]): below the threshold | pKd (PCLO, Q9Y6V0; [1]): below the threshold | pKd (PDZD7_3, Q9H5P4; [1]): below the threshold | pKd (PTPN13_1, Q12923; [1]): below the threshold | pKd (RAPGEF6, Q8TEU7; [1]): below the threshold | pKd (SIPA1L2, Q9P2F8; [1]): below the threshold | pKd (SNTB1, Q13884; [1]): below the threshold | pKd (SYNJ2BP, P57105; [1]): below the threshold

B2: APC, P25054 (peptide)
chain: HSGSYLVTSV
pKd (ARHGAP21, Q5T5U3; [2]): below the threshold | pKd (DLG1_2, Q12959; [2]): 5.21 | pKd (DLG1_3, Q12959; [2]): 4.88 | pKd (DLG2_2, Q15700; [2]): 5.11 | pKd (DLG2_3, Q15700; [2]): 4.67 | pKd (DLG4_3, P78352; [2]): 4.5 | pKd (FRMPD2_2, Q68DX3; [2]): 4.61 | pKd (GIPC2, Q8TF65; [2]): below the threshold | pKd (GOPC, Q9HD26; [2]): 4.3 | pKd (GRID2IP_1, A4D2P6; [2]): below the threshold | pKd (GRIP2_3, Q9C0E4; [2]): below the threshold | pKd (GRIP2_7, Q9C0E4; [2]): below the threshold | pKd (HTRA1, Q92743; [2]): 4.2 | pKd (Inadl_10, Q8NI35; [2]): 3.64 | pKd (LIN7A, O14910; [2]): below the threshold | pKd (LRRC7, Q96NW7; [2]): 4.14 | pKd (MPDZ_5, O75970; [2]): below the threshold | pKd (PARD3B_1, Q8TEW8; [2]): below the threshold | pKd (PCLO, Q9Y6V0; [2]): below the threshold | pKd (PDZD7_3, Q9H5P4; [2]): 5.11 | pKd (PTPN13_1, Q12923; [2]): below the threshold | pKd (RAPGEF6, Q8TEU7; [2]): below the threshold | pKd (SIPA1L2, Q9P2F8; [2]): below the threshold | pKd (SNTB1, Q13884; [2]): 4.05 | pKd (SYNJ2BP, P57105; [2]): 4.81

B3: NRXN3_rs746444206, Q9Y4C0 (peptide)
chain: QKNKDKEYYV
pKd (ARHGAP21, Q5T5U3; [3]): 4.09 | pKd (DLG1_2, Q12959; [3]): below the threshold | pKd (DLG1_3, Q12959; [3]): below the threshold | pKd (DLG2_2, Q15700; [3]): below the threshold | pKd (DLG2_3, Q15700; [3]): below the threshold | pKd (DLG4_3, P78352; [3]): below the threshold | pKd (FRMPD2_2, Q68DX3; [3]): 3.62 | pKd (GIPC2, Q8TF65; [3]): below the threshold | pKd (GOPC, Q9HD26; [3]): below the threshold | pKd (GRID2IP_1, A4D2P6; [3]): below the threshold | pKd (GRIP2_3, Q9C0E4; [3]): below the threshold | pKd (GRIP2_7, Q9C0E4; [3]): 4.8 | pKd (HTRA1, Q92743; [3]): 5.32 | pKd (Inadl_10, Q8NI35; [3]): below the threshold | pKd (LIN7A, O14910; [3]): below the threshold | pKd (LRRC7, Q96NW7; [3]): below the threshold | pKd (MPDZ_5, O75970; [3]): 4.34 | pKd (PARD3B_1, Q8TEW8; [3]): 3.84 | pKd (PCLO, Q9Y6V0; [3]): below the threshold | pKd (PDZD7_3, Q9H5P4; [3]): below the threshold | pKd (PTPN13_1, Q12923; [3]): below the threshold | pKd (RAPGEF6, Q8TEU7; [3]): below the threshold | pKd (SIPA1L2, Q9P2F8; [3]): below the threshold | pKd (SNTB1, Q13884; [3]): below the threshold | pKd (SYNJ2BP, P57105; [3]): below the threshold

B4: ADRB2, P07550 (peptide)
chain: RNCSTNDSLL
pKd (ARHGAP21, Q5T5U3; [2]): 3.56 | pKd (DLG1_2, Q12959; [2]): below the threshold | pKd (DLG1_3, Q12959; [2]): below the threshold | pKd (DLG2_2, Q15700; [2]): below the threshold | pKd (DLG2_3, Q15700; [2]): below the threshold | pKd (DLG4_3, P78352; [2]): below the threshold | pKd (FRMPD2_2, Q68DX3; [2]): below the threshold | pKd (GIPC2, Q8TF65; [2]): below the threshold | pKd (GOPC, Q9HD26; [2]): below the threshold | pKd (GRID2IP_1, A4D2P6; [2]): below the threshold | pKd (GRIP2_3, Q9C0E4; [2]): below the threshold | pKd (GRIP2_7, Q9C0E4; [2]): below the threshold | pKd (HTRA1, Q92743; [2]): 3.62 | pKd (Inadl_10, Q8NI35; [2]): 3.56 | pKd (LIN7A, O14910; [2]): below the threshold | pKd (LRRC7, Q96NW7; [2]): below the threshold | pKd (MPDZ_5, O75970; [2]): below the threshold | pKd (PARD3B_1, Q8TEW8; [2]): 3.75 | pKd (PCLO, Q9Y6V0; [2]): below the threshold | pKd (PDZD7_3, Q9H5P4; [2]): 3.57 | pKd (PTPN13_1, Q12923; [2]): below the threshold | pKd (RAPGEF6, Q8TEU7; [2]): below the threshold | pKd (SIPA1L2, Q9P2F8; [2]): below the threshold | pKd (SNTB1, Q13884; [2]): below the threshold | pKd (SYNJ2BP, P57105; [2]): below the threshold
